Publication PMC12416549 (2024)

Target: T1, TNFR1 (Homo sapiens, UniProt P19438)
T1 chain: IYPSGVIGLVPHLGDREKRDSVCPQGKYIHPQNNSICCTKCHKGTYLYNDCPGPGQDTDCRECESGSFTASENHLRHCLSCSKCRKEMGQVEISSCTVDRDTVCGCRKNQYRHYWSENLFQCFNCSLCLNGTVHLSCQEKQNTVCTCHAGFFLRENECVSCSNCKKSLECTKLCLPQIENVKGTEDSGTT
Assay: yeast display SC50

Row | Binder | apparent Kd (screen)
1 | K11A (designed binder) SMEEEVEKAAAEYEKKKKEAIEKHLEKLKAKDKEAAERFLKELEEAAKEYAKDEAKTMSEEEAKRRAKKYKEKVLLSELSEEEQKEIKEAEEKLVRTILKYVEEAAK | 0.446 nM
2 | V74M (designed binder) SMEEEVEKAAKEYEKKKKEAIEKHLEKLKAKDKEAAERFLKELEEAAKEYAKDEAKTMSEEEAKRRAKKYKEKMLLSELSEEEQKEIKEAEEKLVRTILKYVEEAAK | 1.54 nM
3 | K93F (designed binder) SMEEEVEKAAKEYEKKKKEAIEKHLEKLKAKDKEAAERFLKELEEAAKEYAKDEAKTMSEEEAKRRAKKYKEKVLLSELSEEEQKEIKEAEEFLVRTILKYVEEAAK | 0.653 nM
4 | E54Y (designed binder) SMEEEVEKAAKEYEKKKKEAIEKHLEKLKAKDKEAAERFLKELEEAAKEYAKDYAKTMSEEEAKRRAKKYKEKVLLSELSEEEQKEIKEAEEKLVRTILKYVEEAAK | 7.78 nM
5 | E5A (designed binder) SMEEAVEKAAKEYEKKKKEAIEKHLEKLKAKDKEAAERFLKELEEAAKEYAKDEAKTMSEEEAKRRAKKYKEKVLLSELSEEEQKEIKEAEEKLVRTILKYVEEAAK | 0.593 nM
6 | E89C (designed binder) SMEEEVEKAAKEYEKKKKEAIEKHLEKLKAKDKEAAERFLKELEEAAKEYAKDEAKTMSEEEAKRRAKKYKEKVLLSELSEEEQKEIKCAEEKLVRTILKYVEEAAK | 1.86 nM
7 | K85D (designed binder) SMEEEVEKAAKEYEKKKKEAIEKHLEKLKAKDKEAAERFLKELEEAAKEYAKDEAKTMSEEEAKRRAKKYKEKVLLSELSEEEQDEIKEAEEKLVRTILKYVEEAAK | 0.446 nM
8 | H24C (designed binder) SMEEEVEKAAKEYEKKKKEAIEKCLEKLKAKDKEAAERFLKELEEAAKEYAKDEAKTMSEEEAKRRAKKYKEKVLLSELSEEEQKEIKEAEEKLVRTILKYVEEAAK | 0.446 nM
9 | V74Q (designed binder) SMEEEVEKAAKEYEKKKKEAIEKHLEKLKAKDKEAAERFLKELEEAAKEYAKDEAKTMSEEEAKRRAKKYKEKQLLSELSEEEQKEIKEAEEKLVRTILKYVEEAAK | 29.5 nM
10 | K15D (designed binder) SMEEEVEKAAKEYEDKKKEAIEKHLEKLKAKDKEAAERFLKELEEAAKEYAKDEAKTMSEEEAKRRAKKYKEKVLLSELSEEEQKEIKEAEEKLVRTILKYVEEAAK | 0.653 nM
11 | E26V (designed binder) SMEEEVEKAAKEYEKKKKEAIEKHLVKLKAKDKEAAERFLKELEEAAKEYAKDEAKTMSEEEAKRRAKKYKEKVLLSELSEEEQKEIKEAEEKLVRTILKYVEEAAK | 0.79 nM
12 | E3L (designed binder) SMLEEVEKAAKEYEKKKKEAIEKHLEKLKAKDKEAAERFLKELEEAAKEYAKDEAKTMSEEEAKRRAKKYKEKVLLSELSEEEQKEIKEAEEKLVRTILKYVEEAAK | 12.5 nM
13 | K48W (designed binder) SMEEEVEKAAKEYEKKKKEAIEKHLEKLKAKDKEAAERFLKELEEAAWEYAKDEAKTMSEEEAKRRAKKYKEKVLLSELSEEEQKEIKEAEEKLVRTILKYVEEAAK | 2.73 nM
14 | E26Q (designed binder) SMEEEVEKAAKEYEKKKKEAIEKHLQKLKAKDKEAAERFLKELEEAAKEYAKDEAKTMSEEEAKRRAKKYKEKVLLSELSEEEQKEIKEAEEKLVRTILKYVEEAAK | 0.956 nM
15 | L75R (designed binder) SMEEEVEKAAKEYEKKKKEAIEKHLEKLKAKDKEAAERFLKELEEAAKEYAKDEAKTMSEEEAKRRAKKYKEKVRLSELSEEEQKEIKEAEEKLVRTILKYVEEAAK | 1.16 nM
16 | E34N (designed binder) SMEEEVEKAAKEYEKKKKEAIEKHLEKLKAKDKNAAERFLKELEEAAKEYAKDEAKTMSEEEAKRRAKKYKEKVLLSELSEEEQKEIKEAEEKLVRTILKYVEEAAK | 0.49 nM
17 | D32W (designed binder) SMEEEVEKAAKEYEKKKKEAIEKHLEKLKAKWKEAAERFLKELEEAAKEYAKDEAKTMSEEEAKRRAKKYKEKVLLSELSEEEQKEIKEAEEKLVRTILKYVEEAAK | 22.2 nM
18 | M2N (designed binder) SNEEEVEKAAKEYEKKKKEAIEKHLEKLKAKDKEAAERFLKELEEAAKEYAKDEAKTMSEEEAKRRAKKYKEKVLLSELSEEEQKEIKEAEEKLVRTILKYVEEAAK | 0.49 nM

Row | Binder | apparent Kd (screen)
19 | K73H (designed binder) SMEEEVEKAAKEYEKKKKEAIEKHLEKLKAKDKEAAERFLKELEEAAKEYAKDEAKTMSEEEAKRRAKKYKEHVLLSELSEEEQKEIKEAEEKLVRTILKYVEEAAK | 12.5 nM
20 | Y50Q (designed binder) SMEEEVEKAAKEYEKKKKEAIEKHLEKLKAKDKEAAERFLKELEEAAKEQAKDEAKTMSEEEAKRRAKKYKEKVLLSELSEEEQKEIKEAEEKLVRTILKYVEEAAK | 4.83 nM
21 | A47H (designed binder) SMEEEVEKAAKEYEKKKKEAIEKHLEKLKAKDKEAAERFLKELEEAHKEYAKDEAKTMSEEEAKRRAKKYKEKVLLSELSEEEQKEIKEAEEKLVRTILKYVEEAAK | 0.446 nM
22 | E7S (designed binder) SMEEEVSKAAKEYEKKKKEAIEKHLEKLKAKDKEAAERFLKELEEAAKEYAKDEAKTMSEEEAKRRAKKYKEKVLLSELSEEEQKEIKEAEEKLVRTILKYVEEAAK | 2.73 nM
23 | I21V (designed binder) SMEEEVEKAAKEYEKKKKEAVEKHLEKLKAKDKEAAERFLKELEEAAKEYAKDEAKTMSEEEAKRRAKKYKEKVLLSELSEEEQKEIKEAEEKLVRTILKYVEEAAK | 0.446 nM
24 | A10G (designed binder) SMEEEVEKAGKEYEKKKKEAIEKHLEKLKAKDKEAAERFLKELEEAAKEYAKDEAKTMSEEEAKRRAKKYKEKVLLSELSEEEQKEIKEAEEKLVRTILKYVEEAAK | 0.446 nM
25 | K31V (designed binder) SMEEEVEKAAKEYEKKKKEAIEKHLEKLKAVDKEAAERFLKELEEAAKEYAKDEAKTMSEEEAKRRAKKYKEKVLLSELSEEEQKEIKEAEEKLVRTILKYVEEAAK | 0.446 nM
26 | S77Y (designed binder) SMEEEVEKAAKEYEKKKKEAIEKHLEKLKAKDKEAAERFLKELEEAAKEYAKDEAKTMSEEEAKRRAKKYKEKVLLYELSEEEQKEIKEAEEKLVRTILKYVEEAAK | 0.869 nM
27 | K71N (designed binder) SMEEEVEKAAKEYEKKKKEAIEKHLEKLKAKDKEAAERFLKELEEAAKEYAKDEAKTMSEEEAKRRAKKYNEKVLLSELSEEEQKEIKEAEEKLVRTILKYVEEAAK | 0.446 nM
28 | S80C (designed binder) SMEEEVEKAAKEYEKKKKEAIEKHLEKLKAKDKEAAERFLKELEEAAKEYAKDEAKTMSEEEAKRRAKKYKEKVLLSELCEEEQKEIKEAEEKLVRTILKYVEEAAK | 1.05 nM
29 | M2Q (designed binder) SQEEEVEKAAKEYEKKKKEAIEKHLEKLKAKDKEAAERFLKELEEAAKEYAKDEAKTMSEEEAKRRAKKYKEKVLLSELSEEEQKEIKEAEEKLVRTILKYVEEAAK | 0.869 nM
30 | K85L (designed binder) SMEEEVEKAAKEYEKKKKEAIEKHLEKLKAKDKEAAERFLKELEEAAKEYAKDEAKTMSEEEAKRRAKKYKEKVLLSELSEEEQLEIKEAEEKLVRTILKYVEEAAK | 0.79 nM
31 | Y101E (designed binder) SMEEEVEKAAKEYEKKKKEAIEKHLEKLKAKDKEAAERFLKELEEAAKEYAKDEAKTMSEEEAKRRAKKYKEKVLLSELSEEEQKEIKEAEEKLVRTILKEVEEAAK | 0.405 nM
32 | A67D (designed binder) SMEEEVEKAAKEYEKKKKEAIEKHLEKLKAKDKEAAERFLKELEEAAKEYAKDEAKTMSEEEAKRRDKKYKEKVLLSELSEEEQKEIKEAEEKLVRTILKYVEEAAK | 5.31 nM
33 | I98F (designed binder) SMEEEVEKAAKEYEKKKKEAIEKHLEKLKAKDKEAAERFLKELEEAAKEYAKDEAKTMSEEEAKRRAKKYKEKVLLSELSEEEQKEIKEAEEKLVRTFLKYVEEAAK | 4.39 nM
34 | E104I (designed binder) SMEEEVEKAAKEYEKKKKEAIEKHLEKLKAKDKEAAERFLKELEEAAKEYAKDEAKTMSEEEAKRRAKKYKEKVLLSELSEEEQKEIKEAEEKLVRTILKYVEIAAK | 0.653 nM
35 | A36H (designed binder) SMEEEVEKAAKEYEKKKKEAIEKHLEKLKAKDKEAHERFLKELEEAAKEYAKDEAKTMSEEEAKRRAKKYKEKVLLSELSEEEQKEIKEAEEKLVRTILKYVEEAAK | 0.49 nM
